The target in this test is T1, LexA alone (UniProt P0A7C2 1-202).
T1 construct: also called only the LexA part of the fusion protein
T1 sequence: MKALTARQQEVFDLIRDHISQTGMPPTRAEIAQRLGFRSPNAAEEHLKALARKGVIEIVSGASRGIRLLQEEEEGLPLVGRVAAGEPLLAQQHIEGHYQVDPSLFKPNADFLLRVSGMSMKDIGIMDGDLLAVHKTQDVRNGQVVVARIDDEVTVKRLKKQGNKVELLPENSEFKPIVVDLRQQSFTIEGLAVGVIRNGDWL
Description: yeast two-hybrid GFP reporter, flow cytometry (control, Fig. 2E).

B1: VP16-HIPK2/PEST (other)
chain: HVMRQQPTSTTSSRKSKQHQSSVRNVSTCEVTSSQAISSPQRSKRVKENTPPRCAMVHSSPACSTSVTCGWGDVASSTTRERQRQTIVIPDTPSPTVSVITISSDTDEEEEQKHAPTSTVSKQRKNVISCVTVHDSP
notes: range 789-925
Turning to B1, the binding result is given as “no binding”.
